In US20160326233A1:

Target: HBsAg on purified human serum HBV (virions used in the Tupaia hepatocyte neutralization assay) (Hepatitis B virus)
Experiment: cell-based or functional assay

mouse monoclonal antibody MA18/7
neutralization of HBV infection of primary Tupaia hepatocytes (newly produced HBsAg): 100 µg/mL
neutralization of HBV infection of primary Tupaia hepatocytes (newly produced HBsAg) (reciprocal dilution): 10
